The values below come from patent US20210061900A1 (ASTUTE MEDICAL, published 2021).

Where a chain is given by its changes, count along the chain named.

Assay [1] addresses T1, C-C motif chemokine 14 (CCL14), human (human, UniProt Q16627 20-93).
T1 construct: Residues 20-93 are the mature CCL14 it describes, with signal peptide 1-19; also called HCC-1; NCC-2
T1 sequence: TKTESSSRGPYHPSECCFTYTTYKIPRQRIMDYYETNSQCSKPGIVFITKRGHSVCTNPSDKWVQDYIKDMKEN
As to the kind of experiment: lateral flow sandwich, CCL14 5 ng/mL; strip antibody, with 4H1/4K3 conjugate. How it is done:
(§1) Various antibodies of the invention were tested for their ability to form sandwich complexes in a lateral flow format. Urine was used as a sample matrix for CCL14 antigen standards. One member of the antibody pair (the “strip” antibody) was immobilized onto a nitrocellulose membrane, and the other member of the antibody pair was prepared as a labeled conjugate with a label that is detectable by the ASTUTE 140® meter system for reading to the test strip.
(§2) To further understand the ability of the antibodies of the present invention to pair, a matrix of various antibodies was analyzed at a single CCL14 concentration of 5 ng/mL in a 100 μL sample volume. The solid phase “strip” antibody was applied to nitrocellulose in 3 μL of a 0.25 μg/mL solution. The conjugate was mixed with the sample volume to a concentration of 10 μg/mL.

The target in assay [2] is T1, C-C motif chemokine 14 (CCL14), human. The assay is described as follows: binding to arrays of CCL14-derived peptides (epitope mapping). How it is done: Antibodies were diluted in buffer and applied to the peptide library array. Each antibody tested was optimized for the array by testing different blocking conditions and sample concentration. […] Epitope mapping was precluded in the case of antibodies showing high binding signals throughout the array.

Assay [3] has the same target. The assay is described as follows: lateral flow sandwich, CCL14 5 ng/mL; labelled conjugate, with 2H3/2K1 on the strip. How it is done: as §1, §2

B1: 3H1/3K1 (antibody, V domains shown)
VH: QSVRESEGGLFKPADTLTLTCTVSGFSLSSDAISWVRQAPGNGLEWIGAIDFGGSAYYASWAKSRSTITRNTNENTVTLKMTSLTAADTATYFCARSPSFGIVDRLDLWGQGTLVTVSS
VL: AVVLTQTASPVSAPVGGTVTIKCQASEDIDSYLAWYQQKPGQPPKLLIYDVFDLSSGVPSRFKGSGSGTEFTLTISDLECADAATYYCQSYYYVLGTTSTDHNSFGGGTEVVVK
notes: Rabbit monoclonal IgG expressed in HEK cells; also called 3H1 heavy chain / 3K1 light chain
For the molecule B1, in assay [1], the binding result is given as “binds”.

B2: 12H2/12K1 (antibody, V domains shown)
VH: B1 VH
VL: B1 VL
notes: Rabbit monoclonal IgG expressed in HEK cells; also called 12H2 heavy chain / 12K1 light chain
As to B2, in assay [1], the binding result was “binds”.

B3: 31H1/31K1 (antibody, V domains shown)
VH: B1 VH
VL: B1 VL
notes: Rabbit monoclonal IgG expressed in HEK cells; also called 31H1 heavy chain / 31K1 light chain
For the molecule B3, in assay [1], the binding result is “binds”.

B4: 25H2/25K1 (antibody, V domains shown)
VH: QSLEESGGDLVKPGASLTLTCTASRFDFSSAYYMCWVRQAPGKGLEWIACIYAGSSGGTYYATWAKGRFTISKTSSTTVTLQLTSLTAADTATYFCAGSTGNSRGSYFNLWGQGTLVTVSS
V domain: AQVLTQTPSPVSAAVGGTVTINCQSSQSVYDNNWLAWYQQKLGQPPKLVIYDASKLASGVPSRFKGSGSGTHFTLTISELQCDDSATYYCQGEYSDIWGFGGGTEVVVK
notes: Rabbit monoclonal IgG expressed in HEK cells; also called 25H2 heavy chain / 25K1 light chain
Regarding B4, in assay [2], the binding result is recorded as “binds”.

B5: 17H2/17K1 (antibody, V domains shown)
VH: QSVKESEGGLFKPADTLTLTCTVSGFSLSSYAINWVRQAPGEGLEYIGWISDVGTAYYASWAKSRSTITRNTDENTVTLKMTSLTAADTATYFCAGGDGSYSNYWVSDIWGQGTLVTVSS
VL: AVVLTQTASPVSAPVGGTVTVKCQASQTINSRLAWYQQKQGQPPKLLIYEASTLASGVPSRFKGSGSGTEYTLTIRGVECADAATYSCQEYADENIFGGGTEVVVK
notes: Rabbit monoclonal IgG expressed in HEK cells; Used as a labelled conjugate; also called 17H2 heavy chain / 17K1 light chain
On to B5, for which the binding result in assay [3] was “binds”.

B6: 18H1/18K1 (antibody, V domains shown)
VH: B5 VH
VL: B5 VL
notes: Rabbit monoclonal IgG expressed in HEK cells; also called 18H1 heavy chain / 18K1 light chain
With B6, the binding result in assay [3] was “binds”.

B7: 19H2/19K3 (antibody, V domains shown)
VH: B5 VH with Y31F, T72A
VL: B5 VL with S31N, T53K
notes: Rabbit monoclonal IgG expressed in HEK cells; also called 19H2 heavy chain / 19K3 light chain
As to B7, in assay [3], the binding result is given as “binds”.

B8: 10H3/10K1 (antibody, V domains shown)
VH: B5 VH
VL: B5 VL with A8P, P10L, Q24R, T53K
notes: Rabbit monoclonal IgG expressed in HEK cells; also called 10H3 heavy chain / 10K1 light chain
Turning to B8, the binding result in assay [2] is listed as “binds”.

B9: 4H1/4K3 (antibody, V domains shown)
VH: B5 VH with Y31F, V77A
VL: B5 VL with S31N, T53K
notes: Rabbit monoclonal IgG expressed in HEK cells; Used as a labelled conjugate; also called 4H1 heavy chain / 4K3 light chain
B9: the binding result in assay [3] was “binds”.

B10: 2H3/2K1 (antibody, V domains shown)
VH: QEQLKESGGGLVQPGGSLKLSCKASGFAFSSDYMSWVRQAPGKGLEWIGYIDPIFGSTAYASWVNGRFTISSHNAQNTLYLHLNSLTAADTATYFCARDKDYSSGWGGYFNLWGQGTLVTVSS
VL: AIVMTQTPASVEAAVGGTVTIKCQASQSINSYLAWYQQKPGQPPRLLIYEASTLASGVPSRFKGSGSGTQFTLTISDLECADAATYYCQTYYYSVDSSVGSNAFGGGTEVVVK
notes: Rabbit monoclonal IgG expressed in HEK cells; also called 2H3 heavy chain / 2K1 light chain
For B10, in assay [1], the binding result was “binds”.
